# Reference: patent US20120213763A1 (COUNCIL OF SCIENTIFIC AND INDUSTRIAL RESEARCH, published 2012)
# Positions count from the first letter of the chain named.
# T1: bi-pegylated NC 1-383 (SEQ ID NO 493), Cys at N - 1 and at C + 1 position in SK (1-383, G3)
# T1 chain: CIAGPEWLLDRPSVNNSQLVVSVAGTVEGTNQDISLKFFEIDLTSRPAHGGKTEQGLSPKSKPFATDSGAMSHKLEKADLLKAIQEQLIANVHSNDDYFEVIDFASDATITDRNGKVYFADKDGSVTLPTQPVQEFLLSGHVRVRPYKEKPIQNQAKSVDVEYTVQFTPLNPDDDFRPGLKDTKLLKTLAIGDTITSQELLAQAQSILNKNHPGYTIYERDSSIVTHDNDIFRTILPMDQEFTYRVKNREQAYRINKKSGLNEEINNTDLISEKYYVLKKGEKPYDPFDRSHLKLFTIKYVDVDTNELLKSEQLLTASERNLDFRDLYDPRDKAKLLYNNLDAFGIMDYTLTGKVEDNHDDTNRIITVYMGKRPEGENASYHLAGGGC
# T2: PEGylated SK L260C (SEQ ID NO 50)
# T2 chain: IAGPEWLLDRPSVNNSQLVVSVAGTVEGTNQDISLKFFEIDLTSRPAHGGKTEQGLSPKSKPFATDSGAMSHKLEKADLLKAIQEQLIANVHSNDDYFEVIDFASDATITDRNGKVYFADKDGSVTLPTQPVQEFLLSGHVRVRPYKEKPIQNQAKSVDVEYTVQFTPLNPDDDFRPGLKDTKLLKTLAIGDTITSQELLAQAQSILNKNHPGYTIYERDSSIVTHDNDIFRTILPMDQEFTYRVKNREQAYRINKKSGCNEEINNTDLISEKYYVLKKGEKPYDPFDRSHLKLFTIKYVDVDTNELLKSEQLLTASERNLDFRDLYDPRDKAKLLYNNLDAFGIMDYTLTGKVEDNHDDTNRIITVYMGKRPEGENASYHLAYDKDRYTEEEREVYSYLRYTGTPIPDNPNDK
# T3: PEGylated SK K121C (SEQ ID NO 35)
# T3 chain: T2 chain with K121C, C260L
# T4: PEGylated SK D102C (SEQ ID NO 32)
# T4 chain: T2 chain with D102C, C260L
# T5: PEGylated SK D95C (SEQ ID NO 30)
# T5 chain: T2 chain with D95C, C260L
# T6: bi-pegylated NC 1-414 (SEQ ID NO 491), Cys at N - 1 and at C + 1 position in SK
# T6 chain: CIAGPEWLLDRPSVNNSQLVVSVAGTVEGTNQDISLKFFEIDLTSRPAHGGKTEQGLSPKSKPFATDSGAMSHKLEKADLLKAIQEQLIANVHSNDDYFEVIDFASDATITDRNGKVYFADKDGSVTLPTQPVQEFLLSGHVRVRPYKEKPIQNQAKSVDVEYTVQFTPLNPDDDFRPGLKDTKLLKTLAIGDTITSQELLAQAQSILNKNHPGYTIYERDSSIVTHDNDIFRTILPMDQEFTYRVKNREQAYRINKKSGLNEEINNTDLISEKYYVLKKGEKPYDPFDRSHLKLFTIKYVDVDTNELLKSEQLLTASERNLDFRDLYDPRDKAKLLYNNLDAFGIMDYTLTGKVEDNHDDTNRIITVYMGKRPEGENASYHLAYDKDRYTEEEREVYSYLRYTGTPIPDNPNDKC
# B1: human plasminogen (HPG) (protein)
# chain: KVYLSECKTGNGKNYRGTMSKTKNGITCQKWSSTSPHRPRFSPATHPSEGLEENYCRNPDNDPQGPWCYTTDPEKRYDYCDILECEEECMHCSGENYDGKISKTMSGLECQAWDSQSPHAHGYIPSKFPNKNLKKNYCRNPDRELRPWCFTTDPNKRWELCDIPRCTTPPPSSGPTYQCLKGTGENYRGNVAVTVSGHTCQHWSAQTPHTHNRTPENFPCKNLDENYCRNPDGKRAPWCHTTNSQVRWEYCKIPSCDSSPVSTEQLAPTAPPELTPVVQDCYHGDGQSYRGTSSTTTTGKKCQSWSSMTPHRHQKTPENYPNAGLTMNYCRNPDADKGPWCFTTDPSVRWEYCNLKKCSGTEASVVAPPPVVLLPDVETPSEEDCMFGNGKGYRGKRATTVTGTPCQDWAAQEPHRHSIFTPETNPRAGLEKNYCRNPDGDVGGPWCYTTNPRKLYDYCDVPQCAAPSFDCGKPQVEPKKCPGRVVGGCVAHPHSWPWQVSLRTRFGMHFCGGTLISPEWVLTAAHCLEKSPRPSSYKVILGAHQEVNLEPHVQEIEVSRLFLEPTRKDIALLKLSSPAVITDKVIPACLPSPNYVVADRTECFITGWGETQGTFGAGLLKEAQLPVIENKVCNRYEFLNGRVQSTELCAGHLAGGTDSCQGDSGGPLVCFEKDKYILQGVTSWGLGCARPNKPGVYVRVSRFVTWIEGVMRNN
# Columns and labels:
# [1] = molecular target: T1, bi-pegylated NC 1-383 (SEQ ID NO 493), …
# [2] = molecular target: T2, PEGylated SK L260C (SEQ ID NO 50)
# [3] = molecular target: T3, PEGylated SK K121C (SEQ ID NO 35)
# [4] = molecular target: T4, PEGylated SK D102C (SEQ ID NO 32)
# [5] = molecular target: PEG Variants of SEQ ID NO 24 (PEGylated Cysteine variants of fibrin domain fusion form of SK)
# [6] = molecular target: T5, PEGylated SK D95C (SEQ ID NO 30)
# [7] = molecular target: T6, bi-pegylated NC 1-414 (SEQ ID NO 491), …
protein,measurement,setting,value
B1,Km,[1],0.48 µM
same,Km,[2],0.6 µM
same,Km,[3],0.4 µM
same,Km,[4],0.5 µM
same,Km,[5],0.48 µM
same,Km,[6],0.5 µM
same,Km,[7],0.42 µM
